B1: human Bonsai Ndc80 complex (Bonsai Ndc80-GFP) (complex)
chain 1: MKRSSVSSGGAGRLSMQELRSQDVNKQGLYTPQTKEKPTFGKLSINKPTSERKVSLFGKRTSGHGSRNSQLGIFSSSEKIKDPRPLNDKAFIQQCIRQLCEFLTENGYAHNVSMKSLQAPSVKDFLKIFTFLYGFLCPSYELPDTKFEEEVPRIFKDLGYPFALSKSSMYTVGAPHTWPHIVAALVWLIDCIKIHTAMKESSPLFDDGQPWGEETEDGIMHNKLFLDYTIKCYESFMSGADSFDEMNAELQSKLKDLFNVDAFKLESLEAKNRALNEQIARLEQERSTANKANAERLKRLQKSADLYKDRLGLEIRKIYGEKLQFIFTNIDPKNPESPFMFSLHLNEARDYEVSDSAPHLEGLAEFQENVRKTNNFSAFLANVRKAFTATVYN
chain 2: METLSFPRYNVAEIVIHIRNKILTGADGKNLTKNDLYPNPKPEVLHMIYMRALQIVYGIRLEHFYMMPVNSEVMYPHLMEGFLPFSNLVTHLDSFLPICRVNDFETADILCPKAKRTSRFLSGIINFIHFREACRETYMEFLWQYKSSADKMQQLNAAHQEALMKLERLEKEVDEDTTVTIPSAVYVAQLYHQVSKIEWDYECEPGMVKGIHHGPSVAQPIHLDSTQLSRKFISDYLWSLVDTEW

Key:
[1] = molecular target: recombinant phosphomimetic CENP-T/W complex (T11D, T27D, T85D) (human) (UniProt Q96BT3); test: pull-down
Chain of recombinant phosphomimetic CENP-T/W complex (T11D, T27D, T85D) (human) (Q96BT3 whole entry T11D/T27D/T85D, chain 1 of 2): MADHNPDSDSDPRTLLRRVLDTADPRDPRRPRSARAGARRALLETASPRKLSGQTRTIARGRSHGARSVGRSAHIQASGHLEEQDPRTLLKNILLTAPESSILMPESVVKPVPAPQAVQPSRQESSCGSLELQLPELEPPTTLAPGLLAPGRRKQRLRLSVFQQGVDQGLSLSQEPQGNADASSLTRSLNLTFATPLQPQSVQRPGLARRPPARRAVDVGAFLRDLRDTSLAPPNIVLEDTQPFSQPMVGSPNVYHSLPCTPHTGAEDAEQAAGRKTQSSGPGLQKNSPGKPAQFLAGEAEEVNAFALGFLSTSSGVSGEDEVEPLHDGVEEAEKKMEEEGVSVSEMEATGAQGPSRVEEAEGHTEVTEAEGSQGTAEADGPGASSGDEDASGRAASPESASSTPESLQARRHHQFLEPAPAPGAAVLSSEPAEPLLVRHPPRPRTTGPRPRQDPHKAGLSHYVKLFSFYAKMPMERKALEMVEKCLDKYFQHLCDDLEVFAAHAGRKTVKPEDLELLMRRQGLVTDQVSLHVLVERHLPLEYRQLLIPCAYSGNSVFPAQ
Chain of recombinant phosphomimetic CENP-T/W complex (T11D, T27D, T85D) (human) (Q5EE01 whole entry, chain 2 of 2, further chain): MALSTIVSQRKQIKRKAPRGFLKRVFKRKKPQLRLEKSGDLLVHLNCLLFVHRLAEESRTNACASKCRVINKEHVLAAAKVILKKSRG

[2] = molecular target: recombinant full-length wild-type CENP-T/W complex (human, UniProt Q96BT3 1-561; Q5EE01 1-88); test: pull-down
Chain of recombinant full-length wild-type CENP-T/W complex (Q96BT3 whole entry, chain 1 of 2): as the sequence (Q96BT3 whole entry T11D/T27D/T85D, chain 1 of 2) above, with D11T, D27T, D85T counted along it
Chain of recombinant full-length wild-type CENP-T/W complex (Q5EE01 whole entry, chain 2 of 2): as the sequence (Q5EE01 whole entry, chain 2 of 2, further chain) above

Molecule | fold weaker recruitment than the Ndc80 proteins with shortened stalk [1] | binding result [2]
recombinant full-length GFP-fused human Ndc80 complex (from UniProt O14777 1-642; Q9BZD4 1-464; Q8NBT2 1-197; Q9HBM1 1-224) | 5 times weaker | –
B1 | – | binds

From PMC8351545 (Molecular Biology of the Cell, 2021)
